Target: Vibrio maritimus FtsA residues 1-396 (Vibrio maritimus)
Test: SPR

fold weaker than the EcFtsA^1-405-EcFtsN^1-32 interaction (SPR): 3 fold
Substance: Vibrio maritimus FtsN cytoplasmic peptide, residues 1-29

Source: doi:10.1101/2021.11.08.467742
